For one assay, the target named is proenzyme C3bB (Homo sapiens, UniProt P01024;P00751). The assay can be described thus: SPR. For orientation: SPR reads the build-up and loss of mass on a sensor chip optically.
Another assay concerns the target C3b (human, UniProt P01024). The assay can be described thus: SPR.

Chain of proenzyme C3bB (P00751 whole entry, looked up, chain 1 of 2): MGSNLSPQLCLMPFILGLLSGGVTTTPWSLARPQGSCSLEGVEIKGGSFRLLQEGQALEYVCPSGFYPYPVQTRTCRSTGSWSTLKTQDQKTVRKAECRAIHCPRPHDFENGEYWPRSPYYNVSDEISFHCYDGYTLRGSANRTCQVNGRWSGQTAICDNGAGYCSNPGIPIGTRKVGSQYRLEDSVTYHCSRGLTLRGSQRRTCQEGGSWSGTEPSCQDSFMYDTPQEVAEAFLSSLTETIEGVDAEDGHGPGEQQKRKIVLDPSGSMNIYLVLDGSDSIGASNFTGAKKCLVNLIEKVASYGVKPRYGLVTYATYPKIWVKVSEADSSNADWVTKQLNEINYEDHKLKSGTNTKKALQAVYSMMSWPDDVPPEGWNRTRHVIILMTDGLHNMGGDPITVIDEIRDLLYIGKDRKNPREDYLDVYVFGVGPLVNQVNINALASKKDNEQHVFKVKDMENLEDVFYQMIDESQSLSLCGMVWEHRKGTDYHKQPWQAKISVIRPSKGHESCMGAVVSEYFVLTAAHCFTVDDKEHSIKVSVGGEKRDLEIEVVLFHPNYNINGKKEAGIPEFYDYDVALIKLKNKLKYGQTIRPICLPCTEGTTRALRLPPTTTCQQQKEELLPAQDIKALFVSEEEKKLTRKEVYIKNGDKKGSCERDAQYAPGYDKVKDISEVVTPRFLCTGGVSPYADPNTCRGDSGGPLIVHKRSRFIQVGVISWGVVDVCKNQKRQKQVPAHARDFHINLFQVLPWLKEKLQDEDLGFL
Chain of proenzyme C3bB (P01024 whole entry, looked up, chain 2 of 2): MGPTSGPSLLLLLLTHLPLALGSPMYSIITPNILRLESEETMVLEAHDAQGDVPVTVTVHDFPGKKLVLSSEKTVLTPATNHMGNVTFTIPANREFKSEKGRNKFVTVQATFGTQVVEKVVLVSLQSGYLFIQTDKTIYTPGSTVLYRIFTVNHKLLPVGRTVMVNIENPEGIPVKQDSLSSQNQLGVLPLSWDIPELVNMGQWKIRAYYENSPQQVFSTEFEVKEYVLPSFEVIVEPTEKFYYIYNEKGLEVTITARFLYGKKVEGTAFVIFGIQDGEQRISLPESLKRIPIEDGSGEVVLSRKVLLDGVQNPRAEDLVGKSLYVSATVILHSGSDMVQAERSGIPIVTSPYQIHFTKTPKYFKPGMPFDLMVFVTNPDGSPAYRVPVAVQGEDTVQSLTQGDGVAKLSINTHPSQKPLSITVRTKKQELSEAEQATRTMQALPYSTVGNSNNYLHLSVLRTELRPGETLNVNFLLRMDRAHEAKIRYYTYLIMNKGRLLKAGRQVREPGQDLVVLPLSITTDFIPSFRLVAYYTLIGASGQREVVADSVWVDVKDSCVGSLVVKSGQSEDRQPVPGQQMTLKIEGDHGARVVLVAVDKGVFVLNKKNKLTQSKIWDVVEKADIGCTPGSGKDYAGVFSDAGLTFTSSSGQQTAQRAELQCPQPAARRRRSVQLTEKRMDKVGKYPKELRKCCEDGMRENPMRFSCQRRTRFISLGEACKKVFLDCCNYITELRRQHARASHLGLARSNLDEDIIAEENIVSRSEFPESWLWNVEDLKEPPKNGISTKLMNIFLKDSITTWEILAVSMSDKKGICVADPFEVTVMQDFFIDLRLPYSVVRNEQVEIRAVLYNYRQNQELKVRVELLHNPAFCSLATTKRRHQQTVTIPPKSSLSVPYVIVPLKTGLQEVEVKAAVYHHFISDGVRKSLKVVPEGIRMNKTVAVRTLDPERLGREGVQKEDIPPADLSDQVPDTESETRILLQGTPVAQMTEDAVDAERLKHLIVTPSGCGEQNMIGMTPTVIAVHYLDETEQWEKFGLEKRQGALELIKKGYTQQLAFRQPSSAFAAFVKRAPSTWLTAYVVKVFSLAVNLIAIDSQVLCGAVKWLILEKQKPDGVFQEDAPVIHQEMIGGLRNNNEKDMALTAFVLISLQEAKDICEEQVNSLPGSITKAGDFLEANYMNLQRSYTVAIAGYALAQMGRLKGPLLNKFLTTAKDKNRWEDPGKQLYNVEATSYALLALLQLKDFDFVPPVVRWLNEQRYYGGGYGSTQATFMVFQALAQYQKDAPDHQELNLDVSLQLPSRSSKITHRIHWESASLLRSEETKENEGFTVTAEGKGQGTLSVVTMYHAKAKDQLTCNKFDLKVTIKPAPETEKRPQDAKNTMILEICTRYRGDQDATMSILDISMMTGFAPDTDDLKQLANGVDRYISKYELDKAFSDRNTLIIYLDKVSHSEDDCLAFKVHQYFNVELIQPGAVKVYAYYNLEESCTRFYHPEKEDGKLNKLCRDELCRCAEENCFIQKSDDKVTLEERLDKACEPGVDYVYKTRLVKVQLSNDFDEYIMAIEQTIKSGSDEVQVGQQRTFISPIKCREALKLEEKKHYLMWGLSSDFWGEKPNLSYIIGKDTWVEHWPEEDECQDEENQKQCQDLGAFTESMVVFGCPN

B1: mAb 3E7 (antibody, V domains shown)
VH: EVQLQESGPSLVKPSQTLSLTCSVTGDSITSDYWNWIRKFPGNKLESMGYITYSGTTYYNPSLKSRISITRDTSKNQYYLQLNSVTSEDTATYYCARGVDYEPSYYFDYWGQGTTLTVSS
VL: DIQMTQTTSSLSASLGDRVTISCSASQGISNYLNWYQQKPDGTVKLLIYYTSSLHSGVPSRFSGSGSGTDYSLTISNLEPEDIATYYCQQYSNLPWTFGGGTKLEIK
As to B1, the binding result with proenzyme C3bB was “no binding (tested: 20 μg/ml)”.

B2: mAb H17 (antibody, V domains shown)
VH: EVQLQESGPSLVKPSQTLSLTCTVSGDSITSDYWNWIRQAPGKGLESMGYITYSGTTYYNPSLKSRVTISRDTSKNQYYMELSSLRSEDTATYYCARGVDYEPSYYFDYWGQGTLVTVSS
VL: DIQMTQSPSSLSASVGDRVTITCSASQGISNYLNWYQQKPGKAPKLLIYYTSSLHSGVPSRFSGSGSGTDYSLTISSLQPEDIATYYCQQYSNLPWTFGQGTKVEIK
In the case of B2, the equilibrium dissociation constant (Kd) (usually the concentration at which binding is half-saturated) in the assay with C3b stood at 28 nM. Besides, in the assay with proenzyme C3bB, the binding result is “no binding (tested: 20 μg/ml)”.

Source of the values: paper PMC4066585 (Journal of immunology (Baltimore, Md. : 1950), 2014).
